Measurements from publication doi:10.1101/2025.04.18.649563.
Values joined by “and” are separate entries in the source; they are usually repeats but may differ in a detail not shown here. Equal entries are not always repeated.

Biological target: actin purified from muscle acetone powder (ground beef); polymerised to F-actin (Bos taurus (ground beef)) (UniProt P68138)
Assay: co-sedimentation

“Lfat1 ABD [change], recombinant (from UniProt Q5ZVQ3 138-355) (domain or fragment)” was tested, and the Kd was 19.1 µM and 16.3 µM and 63.7 µM.
